Reference: US11278600B2, “Human alpha-galactosidase variants” (Codexis, Inc., priority 2014, dated 2022)
Changes are numbered by the printed parent chain.

B1: 571 (protein)
chain: LDNGLARTPTMGWLHWERFMCNLDCQEEPDSCISEKLFMEMAERMVSEGWKDAGYEYLCIDDCWMAPQRDSEGRLQADPQRFPHGIRQLANHVHSKGLKLGIYADVGNKTCAGFPGSFGYYDIDAQTFADWGVDLLKFDGCYCDSLENLADGYKHMSLALNRTGRSIVYSCEWPLYMWPFQKPNYTEIRQYCNHWRNFADIDDSWASIKSILDWTSRNQERIVDVAGPGGWNDPDMLVIGNFGLSWDQQVTQMALWAIMAAPLFMSNDLRHISPQAKALLQDKDVIAINQDPLGKQGYQLRKGDKFEVWERPLSGDAWAVAIINRQEIGGPRSYTIPVASLGKGVACNPACFITQLLPVKRQLGFYNWTSRLKSHINPTGTVLLQLENTMQMSLKDLL
modifications: Synthetic Polypeptide sequence of Variant No. 571 of mature Human GLA
B2: 572 (protein)
chain: B1 chain with K305L
modifications: Synthetic Polypeptide sequence of Variant No. 572 of mature Human GLA
B3: 573 (protein)
chain: B1 chain with K305N, S314A
modifications: Synthetic Polypeptide sequence of Variant No. 573 of mature Human GLA
B4: 574 (protein)
chain: B1 chain with K305N, S314H
modifications: Synthetic Polypeptide sequence of Variant No. 574 of mature Human GLA
B5: 575 (protein)
chain: B1 chain with K305N, S314N
modifications: Synthetic Polypeptide sequence of Variant No. 575 of mature Human GLA
B6: 576 (protein)
chain: B1 chain with K305N, S314Y
modifications: Synthetic Polypeptide sequence of Variant No. 576 of mature Human GLA
B7: 577 (protein)
chain: B1 chain with W246A, K305N
modifications: Synthetic Polypeptide sequence of Variant No. 577 of mature Human GLA
B8: 578 (protein)
chain: B1 chain with W246I, K305N
modifications: Synthetic Polypeptide sequence of Variant No. 578 of mature Human GLA
B9: 579 (protein)
chain: B1 chain with W246P, K305N
modifications: Synthetic Polypeptide sequence of Variant No. 579 of mature Human GLA
B10: 580 (protein)
chain: B1 chain with W246R, K305N
modifications: Synthetic Polypeptide sequence of Variant No. 580 of mature Human GLA
B11: 581 (protein)
chain: B1 chain with W246S, K305N
modifications: Synthetic Polypeptide sequence of Variant No. 581 of mature Human GLA
B12: 582 (protein)
chain: B1 chain with S210A, K305N
modifications: Synthetic Polypeptide sequence of Variant No. 582 of mature Human GLA
B13: 583 (protein)
chain: B1 chain with S210A, K305N, A350T
modifications: Synthetic Polypeptide sequence of Variant No. 583 of mature Human GLA
B14: 520 (protein)
chain: B1 chain with A77S, K305N
modifications: Synthetic Polypeptide sequence of Variant No. 520 of mature Human GLA
B15: 584 (protein)
chain: B1 chain with S210E, K305N
modifications: Synthetic Polypeptide sequence of Variant No. 584 of mature Human GLA
B16: 585 (protein)
chain: B1 chain with S210K, K305N
modifications: Synthetic Polypeptide sequence of Variant No. 585 of mature Human GLA

Assay: HTP-analysis of supernatants pretreated with base (MUGal hydrolysis)
Assay type: biochemical
Details: activity of the variant/activity of Rd3BB (SEQ ID NO: 13); challenge at pH 9.7
Procedure, shortened: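 Supernatants from INVSc1 yeast expressing GLA variants (SD-Ura, 66-84 h, 30° C) were mixed with McIlvaine buffer pH 7.0-8.2 or 200 mM sodium bicarbonate pH 9.1-9.7 and held 1-18 h at 37° C. Residual activity was then measured on MUGal at pH 4.8/4.3, 37° C, 30-180 min, by fluorescence (Ex 355/Em 448 nm).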

| Molecule | Relative Activity of GLA Variants After Challenge at pH 9.7 |
| --- | --- |
| B1 | ++ (++ = >5 to 10 relative activity over Rd3BB (SEQ ID NO: 13)) |
| B2 | ++ (++ = >5 to 10 relative activity over Rd3BB (SEQ ID NO: 13)) |
| B3 | ++ (++ = >5 to 10 relative activity over Rd3BB (SEQ ID NO: 13)) |
| B4 | ++ (++ = >5 to 10 relative activity over Rd3BB (SEQ ID NO: 13)) |
| B5 | ++ (++ = >5 to 10 relative activity over Rd3BB (SEQ ID NO: 13)) |
| B6 | ++ (++ = >5 to 10 relative activity over Rd3BB (SEQ ID NO: 13)) |
| B7 | ++ (++ = >5 to 10 relative activity over Rd3BB (SEQ ID NO: 13)) |
| B8 | ++ (++ = >5 to 10 relative activity over Rd3BB (SEQ ID NO: 13)) |
| B9 | ++ (++ = >5 to 10 relative activity over Rd3BB (SEQ ID NO: 13)) |
| B10 | ++ (++ = >5 to 10 relative activity over Rd3BB (SEQ ID NO: 13)) |
| B11 | ++ (++ = >5 to 10 relative activity over Rd3BB (SEQ ID NO: 13)) |
| B12 | ++ (++ = >5 to 10 relative activity over Rd3BB (SEQ ID NO: 13)) |
| B13 | ++ (++ = >5 to 10 relative activity over Rd3BB (SEQ ID NO: 13)) |
| B14 | + (+ = 1.5 to 5 relative activity over Rd3BB (SEQ ID NO: 13)) |
| B15 | ++ (++ = >5 to 10 relative activity over Rd3BB (SEQ ID NO: 13)) |
| B16 | ++ (++ = >5 to 10 relative activity over Rd3BB (SEQ ID NO: 13)) |

Assay: HTP-analysis of supernatants pretreated with acid (MUGal hydrolysis)
Assay type: biochemical
Details: activity of the variant/activity of Rd3BB (SEQ ID NO: 13); challenge at pH 3.7
Procedure, shortened: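 MUGal hydrolysis was tracked by fluorescence (Ex 355 nm, Em 448 nm) after a 30-180 min reaction at 37° C. in pH 4.8 McIlvaine/citrate buffer, stopped with 1 M sodium carbonate. Beforehand, yeast (INVSc1) culture supernatants carrying GLA variants were held 1-3 h at 37° C. in acidic McIlvaine buffer, pH 3.3-4.3.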

| Molecule | Relative Activity of GLA Variants After Challenge at pH 3.7 |
| --- | --- |
| B1 | + (+ = 1.5 to 5 relative activity over Rd3BB (SEQ ID NO: 13)) |
| B2 | +++ (+++ = >10 relative activity over Rd3BB (SEQ ID NO: 13)) |
| B3 | + (+ = 1.5 to 5 relative activity over Rd3BB (SEQ ID NO: 13)) |
| B4 | + (+ = 1.5 to 5 relative activity over Rd3BB (SEQ ID NO: 13)) |
| B5 | + (+ = 1.5 to 5 relative activity over Rd3BB (SEQ ID NO: 13)) |
| B6 | + (+ = 1.5 to 5 relative activity over Rd3BB (SEQ ID NO: 13)) |
| B7 | +++ (+++ = >10 relative activity over Rd3BB (SEQ ID NO: 13)) |
| B8 | +++ (+++ = >10 relative activity over Rd3BB (SEQ ID NO: 13)) |
| B9 | +++ (+++ = >10 relative activity over Rd3BB (SEQ ID NO: 13)) |
| B10 | +++ (+++ = >10 relative activity over Rd3BB (SEQ ID NO: 13)) |
| B11 | ++ (++ = >5 to 10 relative activity over Rd3BB (SEQ ID NO: 13)) |
| B12 | + (+ = 1.5 to 5 relative activity over Rd3BB (SEQ ID NO: 13)) |
| B13 | + (+ = 1.5 to 5 relative activity over Rd3BB (SEQ ID NO: 13)) |
| B14 | + (+ = 1.5 to 5 relative activity over Rd3BB (SEQ ID NO: 13)) |
| B15 | + (+ = 1.5 to 5 relative activity over Rd3BB (SEQ ID NO: 13)) |
| B16 | + (+ = 1.5 to 5 relative activity over Rd3BB (SEQ ID NO: 13)) |

Assay: HTP-analysis of yeast culture supernatants, no challenge (MUGal hydrolysis)
Assay type: biochemical
Details: activity of the variant/activity of Rd3BB (SEQ ID NO: 13)
Procedure, shortened: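 Activity read as 4-methylumbelliferyl α-D-galactopyranoside hydrolysis: fluorescence (355/448 nm) after sodium carbonate stop, following 30-180 min at 37° C with 2 mM MUGal stock at pH 4.6–4.8. Enzyme source is unchallenged culture supernatant of INVSc1 yeast expressing GLA variants, grown 66-84 h at 30° C.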

| Molecule | Relative Activity of GLA Variants After No Challenge (NC) |
| --- | --- |
| B1 | + (+ = 1.5 to 5 relative activity over Rd3BB (SEQ ID NO: 13)) |
| B2 | + (+ = 1.5 to 5 relative activity over Rd3BB (SEQ ID NO: 13)) |
| B3 | + (+ = 1.5 to 5 relative activity over Rd3BB (SEQ ID NO: 13)) |
| B4 | + (+ = 1.5 to 5 relative activity over Rd3BB (SEQ ID NO: 13)) |
| B5 | + (+ = 1.5 to 5 relative activity over Rd3BB (SEQ ID NO: 13)) |
| B6 | + (+ = 1.5 to 5 relative activity over Rd3BB (SEQ ID NO: 13)) |
| B7 | + (+ = 1.5 to 5 relative activity over Rd3BB (SEQ ID NO: 13)) |
| B8 | + (+ = 1.5 to 5 relative activity over Rd3BB (SEQ ID NO: 13)) |
| B9 | + (+ = 1.5 to 5 relative activity over Rd3BB (SEQ ID NO: 13)) |
| B10 | + (+ = 1.5 to 5 relative activity over Rd3BB (SEQ ID NO: 13)) |
| B11 | + (+ = 1.5 to 5 relative activity over Rd3BB (SEQ ID NO: 13)) |
| B12 | + (+ = 1.5 to 5 relative activity over Rd3BB (SEQ ID NO: 13)) |
| B13 | + (+ = 1.5 to 5 relative activity over Rd3BB (SEQ ID NO: 13)) |
| B14 | + (+ = 1.5 to 5 relative activity over Rd3BB (SEQ ID NO: 13)) |
| B15 | + (+ = 1.5 to 5 relative activity over Rd3BB (SEQ ID NO: 13)) |
| B16 | + (+ = 1.5 to 5 relative activity over Rd3BB (SEQ ID NO: 13)) |
